This experiment concerns the target T1, biotinylated ClfA001 (Staphylococcus aureus).
T1 chain: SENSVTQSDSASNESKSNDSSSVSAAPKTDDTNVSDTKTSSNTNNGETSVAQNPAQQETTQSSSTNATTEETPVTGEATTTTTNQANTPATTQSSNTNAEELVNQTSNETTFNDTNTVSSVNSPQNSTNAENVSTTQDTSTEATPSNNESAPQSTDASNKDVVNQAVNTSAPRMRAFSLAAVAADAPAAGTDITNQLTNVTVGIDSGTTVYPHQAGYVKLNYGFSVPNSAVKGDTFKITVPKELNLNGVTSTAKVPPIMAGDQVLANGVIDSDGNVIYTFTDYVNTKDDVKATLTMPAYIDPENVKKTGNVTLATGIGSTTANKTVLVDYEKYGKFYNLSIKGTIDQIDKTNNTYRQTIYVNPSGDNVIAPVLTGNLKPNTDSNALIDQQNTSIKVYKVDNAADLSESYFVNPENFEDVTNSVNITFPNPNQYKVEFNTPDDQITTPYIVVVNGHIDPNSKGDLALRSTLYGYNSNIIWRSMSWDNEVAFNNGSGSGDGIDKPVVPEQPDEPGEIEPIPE
The experiment can be described thus: fibrinogen-binding inhibition ELISA: biotinylated ClfA001 (2 µg/ml) on a fibrinogen-coated plate, antibody titrated. For orientation: ELISA stands for enzyme-linked immunosorbent assay.

B1: SAR114 (antibody, V domains shown)
VH: QVQLQESGPGLVKPSETLSLTCTVSGGSIQNSYWSWIRQPPGKGLEWIGYLYSSGRTNYTPSLKSRVTISVDTSKNQFSLKLSSVTAADTAVYYCARTHLGGFHYGGGFWFDPWGQGTLVTVSS
VL: DIQMTQSPSSLSASVGDRVTITCRASQSITSYLNWYQQKPGKAPKLLIYASSSLQSGVPSRFSGSGSGTDFTLTISSLQPEDFATYYCQESYSTPPTFGQGTKVEIK
notes: also called anti-ClfA mAb SAR114
For the molecule B1, the 50% inhibitory concentration (IC50) (usually the point on the concentration scale where inhibition reaches its midpoint) stood at 3.02 µg/mL.

The values above are taken from patent US20220089699A1 (AstraZeneca / MedImmune, published 2022).
